Measurements published in patent US20240317847A1 (Bayer, published 2024).
Positions count from the first letter of the chain named. In names and notes the source's numbering stands. Each block holds one binder with its values, some of them ahead of it.

What was measured:
human IL-11 [1] = target: T1, human IL-11 (human, UniProt P20809 22-199); assay: SPR, antibody captured, IL-11 as analyte
T1 construct: bought from Invigate; also called hIL-11; hIL11
T1 sequence: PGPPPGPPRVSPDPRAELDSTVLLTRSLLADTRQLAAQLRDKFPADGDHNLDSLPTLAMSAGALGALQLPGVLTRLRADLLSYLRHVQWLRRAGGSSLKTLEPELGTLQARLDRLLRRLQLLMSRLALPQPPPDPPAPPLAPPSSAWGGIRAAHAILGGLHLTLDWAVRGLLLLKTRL
Description: (§1) Antibodies were captured via anti-mouse Fc IgGs (“Mouse antibody capture kit, Order No. BR100383, Cytiva) covalently amine coupled to a Series S CM5 sensor chip (Cytiva). The amine coupling was carried out according to the manufacturer's instructions using 1-ethyl-3-(3-dimethylaminopropyl) carbodiimide hydrochloride (EDC), N-hydroxysuccinimide (NHS) and ethanolamine HCl, pH 8.5 (“Amine Coupling Kit” BR-1000-50, Cytiva.). Human IL-11 (Invigate, e.g., lot #C121021-19), and murine IL-11 (Invigate, e.g., lot #C210819-09) were used as analytes. […] Based on that experiment an IL-11 concentration range was chosen to optimally determine kinetics and affinity of anti-IL-11 antibodies in multicycle kinetics mode. The sensor surface was regenerated with glycine pH 1.7 after each antigen injection. Obtained sensorgrams were double referenced (subtraction of reference flow cell signal and buffer injection) and were fitted to a 1:1 Langmuir binding model to derive kinetic data using the Biacore T200 Evaluation software or the Biacore Insight software.
(§2) Deviations from closest human germlines in CDR regions and FW regions and potential CMC relevant residues in CDR regions were adjusted by site directed mutagenesis following standard molecular protocols or purchased from DNA synthesis providers. The generated DNA constructs were expressed by transient transfection of mammalian cells and purified as described in Example 15. Antibodies were then tested for human IL-11 and murine IL-11 binding by SPR as described in Example 16.

murine IL-11 [2] = target: T2, murine IL-11 (mouse, UniProt P47873 22-199); assay: SPR, antibody captured, IL-11 as analyte
T2 construct: bought from Invigate; also called mIL-11; mIL11
T2 sequence: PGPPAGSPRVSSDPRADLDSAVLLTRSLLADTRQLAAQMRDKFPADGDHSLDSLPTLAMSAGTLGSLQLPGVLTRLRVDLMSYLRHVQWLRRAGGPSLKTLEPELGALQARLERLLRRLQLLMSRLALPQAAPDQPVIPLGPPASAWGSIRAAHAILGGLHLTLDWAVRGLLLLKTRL
Description: as §1, §2

human IL-11 [3] = target: T1, human IL-11; assay: cell-based or functional assay
murine IL-11 [4] = target: T2, murine IL-11; assay: cell-based or functional assay
human IL-11 [5] = target: T1, human IL-11; assay: SPR, IgG captured via anti-human Fc, IL-11 as analyte
Description: (§3) Antibody binding affinity to hIL-11 (Invigate, Germany, e.g., lot #C121021-19) and mIL-11 (Invigate, Germany, e.g., lot #C210819-09) was detected using Biacore 8K. Each antibody was captured on an anti-human IgG Fc antibody immobilized CM5 sensor chip (GE). hIL-11 and mIL-11 at different concentrations (0, 5, 15.82 and 50 nM) in 1×HBS-EP+ (pH 7.4) (GE healthcare) were injected over the sensor chip at a flow rate of 30 μL/min for an association phase of 120 s, followed by 200 s dissociation phase. The chip was then regenerated by 10 mM Glycine, pH 1.5 after each binding cycle.
(§4) The sensorgrams of blank surface and buffer channel were subtracted from the test sensorgrams. The experimental data was fitted by 1:1 model using Langmiur analysis. Molecular weight of 19.3 kDa was used to calculate the molar concentration of human and mouse IL-11.
(§5) 16 AB were produced as described in Example 21 and binding of purified AB to human and mouse IL-11 was analyzed using SPR as described in Example 21.

murine IL-11 [6] = target: T2, murine IL-11; assay: as above
Description: as §3, §4, §5

- Kd (human IL-11 [1]): 7.3 nM
- Kd (murine IL-11 [2]): 0.66 nM
B1: TPP-19842 (antibody, V domains shown)
VH: EVQLLESGGGLVQPGGSLRLSCAASGFTFSSYGMHWVRQAPGKGLEWVSVISYDGSYKYYADSVKGRFTISRDNSKNTLYLQMNSLRAEDTAVYYCAAGVPDYWGQGTLVTVSS
VL: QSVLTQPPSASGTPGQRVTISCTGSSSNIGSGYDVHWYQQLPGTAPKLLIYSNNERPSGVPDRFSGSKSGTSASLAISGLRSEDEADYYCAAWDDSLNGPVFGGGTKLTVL

- Kd (human IL-11 [1]): 20 nM
- Kd (murine IL-11 [2]): 5 nM
B2: TPP-19845 (antibody, V domains shown)
VH: B1 VH
VL: QSVLTQPPSASGTPGQRVTISCTGSSSNIGAGYDVYWYQQLPGTAPKLLIYSNNERPSGVPDRFSGSKSGTSASLAISGLRSEDEADYYCAAWDDSLNGPVFGGGTKLTVL

- Kd (human IL-11 [1]): 6.5 nM
- Kd (murine IL-11 [2]): 1.6 nM
B3: TPP-19850 (antibody, V domains shown)
VH: B1 VH
VL: B2 VL with Y36H, N98S

- Kd (human IL-11 [1]): 27 nM
- Kd (murine IL-11 [2]): 3.4 nM
B4: TPP-19867 (antibody, V domains shown)
VH: B1 VH with Y57S
VL: B2 VL with Y36H

- Kd (human IL-11 [1]): 17 nM
- Kd (murine IL-11 [2]): 28 nM
B5: TPP-19861 (antibody, V domains shown)
VH: B1 VH with G33A
VL: B2 VL with Y36H

- Kd (human IL-11 [1]): 5.9 nM
- Kd (murine IL-11 [2]): 0.68 nM
B6: TPP-19849 (antibody, V domains shown)
VH: B1 VH
VL: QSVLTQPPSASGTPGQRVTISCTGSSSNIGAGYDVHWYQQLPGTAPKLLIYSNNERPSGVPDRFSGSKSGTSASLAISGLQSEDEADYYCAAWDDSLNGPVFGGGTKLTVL

- Kd (human IL-11 [1]): 21 nM
- Kd (murine IL-11 [2]): 4 nM
B7: TPP-19873 (antibody, V domains shown)
VH: B1 VH with Y57N
VL: B2 VL with Y36H

- Kd (human IL-11 [1]): 5.5 nM
- Kd (murine IL-11 [2]): 0.47 nM
B8: TPP-19872 (antibody, V domains shown)
VH: B1 VH with S49A
VL: B2 VL with Y36H

- Kd (human IL-11 [1]): 6.2 nM
- Kd (murine IL-11 [2]): 0.72 nM
B9: TPP-19868 (antibody, V domains shown)
VH: B1 VH with K58T
VL: B2 VL with Y36H

- Kd (human IL-11 [1]): 4.7 nM
- Kd (murine IL-11 [2]): 0.64 nM
B10: TPP-19863 (antibody, V domains shown)
VH: B1 VH with V50A
VL: B2 VL with Y36H

- Kd (human IL-11 [1]): 13 nM
- binding result (murine IL-11 [2]): no binding
B11: TPP-19864 (antibody, V domains shown)
VH: B1 VH with Y53G
VL: B2 VL with Y36H

- Kd (human IL-11 [1]): 19 nM
- Kd (murine IL-11 [2]): 4.7 nM
B12: TPP-19862 (antibody, V domains shown)
VH: B1 VH with H35S
VL: B2 VL with Y36H

- Kd (human IL-11 [1]): 25 nM
- Kd (murine IL-11 [2]): 3.6 nM
B13: TPP-19865 (antibody, V domains shown)
VH: B1 VH with D54S
VL: B2 VL with Y36H

- Kd (human IL-11 [1]): 9 nM
- Kd (murine IL-11 [2]): 2.1 nM
B14: TPP-19847 (antibody, V domains shown)
VH: B1 VH
VL: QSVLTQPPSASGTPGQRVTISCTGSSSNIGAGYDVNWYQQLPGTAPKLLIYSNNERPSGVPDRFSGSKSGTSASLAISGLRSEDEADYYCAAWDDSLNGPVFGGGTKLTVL

- Kd (human IL-11 [1]): 8.5 nM
- Kd (murine IL-11 [2]): 1.4 nM
B15: TPP-19866 (antibody, V domains shown)
VH: B1 VH with S56G
VL: B2 VL with Y36H

- Kd (human IL-11 [1]): 52 nM
- Kd (murine IL-11 [2]): 2.4 nM
B16: TPP-19848 (antibody, V domains shown)
VH: B1 VH
VL: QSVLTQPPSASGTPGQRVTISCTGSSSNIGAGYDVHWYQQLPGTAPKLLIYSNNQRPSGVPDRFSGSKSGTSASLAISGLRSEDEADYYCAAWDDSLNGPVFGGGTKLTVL

- Kd (human IL-11 [1]): 17 nM
- Kd (murine IL-11 [2]): 7.5 nM
B17: TPP-19843 (antibody, V domains shown)
VH: B1 VH
VL: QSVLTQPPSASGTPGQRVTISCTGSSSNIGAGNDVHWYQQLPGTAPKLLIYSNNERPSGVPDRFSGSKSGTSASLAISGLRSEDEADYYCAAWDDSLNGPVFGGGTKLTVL

- Kd (human IL-11 [1]): 99 nM
- Kd (murine IL-11 [2]): 9.9 nM
B18: TPP-19874 (antibody, V domains shown)
VH: B1 VH with A98R
VL: B2 VL with Y36H

- IC50, RGA (human IL-11 [3]): 5.4 nM
- IC50, RGA (murine IL-11 [4]): 1.6 nM
- Kd (human IL-11 [5]): 0.89 nM
- Kd (murine IL-11 [6]): 0.64 nM
B19: TPP-31313 (antibody, IgG4, V domains shown)
VH: QVQLVESGGGVVQPGRSLRLSCAASGFTFSHYDMHWVRQAPGKGLEWVAVISYEGSNKFYADSVKGRFTISRDNSKNTLYLQMNSLRAEDTAVYYCARTPGSHFDYWGQGTLVTVSS
VL: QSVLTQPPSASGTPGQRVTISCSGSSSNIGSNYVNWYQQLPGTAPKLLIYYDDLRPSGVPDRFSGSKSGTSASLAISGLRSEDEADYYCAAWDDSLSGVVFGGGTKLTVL
notes: hIgG4 SPLE, lambda; also called FB; fundamental backbone

- IC50, RGA (human IL-11 [3]): 3.8 nM
- IC50, RGA (murine IL-11 [4]): 1.2 nM
- Kd (human IL-11 [5]): 0.89 nM
- Kd (murine IL-11 [6]): 0.3 nM
B20: TPP-31318 (antibody, IgG4, V domains shown)
VH: B19 VH with H35N
VL: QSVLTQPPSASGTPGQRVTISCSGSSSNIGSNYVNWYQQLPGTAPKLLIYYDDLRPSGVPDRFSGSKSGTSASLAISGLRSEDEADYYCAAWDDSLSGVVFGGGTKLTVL
notes: hIgG4 SPLE, lambda; FB - 1, back mutation VH-H35N

- IC50, RGA (human IL-11 [3]): 2.4 nM
- IC50, RGA (murine IL-11 [4]): 1.2 nM
- Kd (human IL-11 [5]): 0.87 nM
- Kd (murine IL-11 [6]): 0.59 nM
B21: TPP-31314 (antibody, IgG4, V domains shown)
VH: B19 VH with Q1E
VL: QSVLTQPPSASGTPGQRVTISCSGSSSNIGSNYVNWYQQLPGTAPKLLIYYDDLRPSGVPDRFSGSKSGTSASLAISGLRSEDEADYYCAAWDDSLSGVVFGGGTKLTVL
notes: hIgG4 SPLE, lambda; FB - 1, back mutation VH-Q1E

- IC50, RGA (human IL-11 [3]): 2.8 nM
- IC50, RGA (murine IL-11 [4]): 1 nM
- Kd (human IL-11 [5]): 0.85 nM
- Kd (murine IL-11 [6]): 0.67 nM
B22: TPP-31321 (antibody, IgG4, V domains shown)
VH: B19 VH with S63F
VL: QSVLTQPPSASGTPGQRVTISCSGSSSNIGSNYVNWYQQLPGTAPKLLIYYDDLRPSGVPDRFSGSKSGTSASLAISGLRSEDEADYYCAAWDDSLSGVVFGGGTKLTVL
notes: hIgG4 SPLE, lambda; FB - 1, back mutation VH-S63F

- IC50, RGA (human IL-11 [3]): 1.7 nM
- IC50, RGA (murine IL-11 [4]): 1.4 nM
- Kd (human IL-11 [5]): 0.81 nM
- Kd (murine IL-11 [6]): 0.69 nM
B23: TPP-31322 (antibody, IgG4, V domains shown)
VH: B19 VH
VL: QSVLTQPPSASGTPGQRVTISCSGSSSNIGNNYVNWYQQLPGTAPKLLIYYDDLRPSGVPDRFSGSKSGTSASLAISGLRSEDEADYYCAAWDDSLSGVVFGGGTKLTVL
notes: hIgG4 SPLE, lambda; FB - 1, back mutation VL-S31N

- IC50, RGA (human IL-11 [3]): 2.8 nM
- IC50, RGA (murine IL-11 [4]): 1.1 nM
- Kd (human IL-11 [5]): 0.95 nM
- Kd (murine IL-11 [6]): 0.56 nM
B24: TPP-31320 (antibody, IgG4, V domains shown)
VH: B19 VH with A49G
VL: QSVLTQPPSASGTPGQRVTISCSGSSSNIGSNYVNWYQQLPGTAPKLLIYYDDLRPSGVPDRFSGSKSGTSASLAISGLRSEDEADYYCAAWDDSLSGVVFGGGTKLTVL
notes: hIgG4 SPLE, lambda; FB - 1, back mutation VH-A49G

- IC50, RGA (human IL-11 [3]): 2.9 nM
- IC50, RGA (murine IL-11 [4]): 1.5 nM
- Kd (human IL-11 [5]): 0.83 nM
- Kd (murine IL-11 [6]): 0.58 nM
B25: TPP-31317 (antibody, IgG4, V domains shown)
VH: B19 VH with R16G
VL: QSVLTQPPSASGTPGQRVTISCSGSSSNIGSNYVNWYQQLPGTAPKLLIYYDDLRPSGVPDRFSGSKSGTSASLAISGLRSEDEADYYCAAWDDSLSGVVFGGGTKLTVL
notes: hIgG4 SPLE, lambda; FB - 1, back mutation VH-R16G

- IC50, RGA (human IL-11 [3]): 2.9 nM
- IC50, RGA (murine IL-11 [4]): 1.7 nM
- Kd (human IL-11 [5]): 0.87 nM
- Kd (murine IL-11 [6]): 0.65 nM
B26: TPP-31315 (antibody, IgG4, V domains shown)
VH: B19 VH with V5L
VL: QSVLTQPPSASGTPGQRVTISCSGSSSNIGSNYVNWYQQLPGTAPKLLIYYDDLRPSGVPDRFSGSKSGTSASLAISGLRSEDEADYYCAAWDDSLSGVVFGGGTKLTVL
notes: hIgG4 SPLE, lambda; FB - 1, back mutation VH-V5L

- IC50, RGA (human IL-11 [3]): 7.1 nM
- IC50, RGA (murine IL-11 [4]): 3.5 nM
- Kd (human IL-11 [5]): 2.4 nM
- Kd (murine IL-11 [6]): 1.7 nM
B27: TPP-31323 (antibody, IgG4, V domains shown)
VH: B19 VH
VL: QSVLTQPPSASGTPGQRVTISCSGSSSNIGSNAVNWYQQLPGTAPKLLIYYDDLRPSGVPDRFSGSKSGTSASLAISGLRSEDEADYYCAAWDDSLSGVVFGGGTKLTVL
notes: hIgG4 SPLE, lambda; FB - 1, back mutation VL-Y33A

- IC50, RGA (human IL-11 [3]): 2.3 nM
- IC50, RGA (murine IL-11 [4]): 1.6 nM
- Kd (human IL-11 [5]): 0.83 nM
- Kd (murine IL-11 [6]): 0.59 nM
B28: TPP-31319 (antibody, IgG4, V domains shown)
VH: B19 VH with V37L
VL: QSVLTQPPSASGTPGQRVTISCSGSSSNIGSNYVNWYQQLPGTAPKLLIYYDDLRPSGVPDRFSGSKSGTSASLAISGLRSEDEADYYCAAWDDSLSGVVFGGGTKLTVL
notes: hIgG4 SPLE, lambda; FB - 1, back mutation VH-V37L

- IC50, RGA (human IL-11 [3]): 3.2 nM
- IC50, RGA (murine IL-11 [4]): 1.1 nM
- Kd (human IL-11 [5]): 0.85 nM
- Kd (murine IL-11 [6]): 0.62 nM
B29: TPP-31316 (antibody, IgG4, V domains shown)
VH: B19 VH with V11L
VL: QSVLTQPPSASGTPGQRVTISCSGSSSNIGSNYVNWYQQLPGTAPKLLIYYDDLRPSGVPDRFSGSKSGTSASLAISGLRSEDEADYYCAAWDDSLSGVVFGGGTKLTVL
notes: hIgG4 SPLE, lambda; FB - 1, back mutation VH-V11L
